Patent publication US20070280947A1

Tests used:
[1] = biological target: Human Tie-2 (human) (UniProt Q02763); test: cell-based or functional assay
[2] = biological target: Human Tie-1 (human) (UniProt P35590); test: cell-based or functional assay
Chain of UniProt P35590 (P35590 25-1138): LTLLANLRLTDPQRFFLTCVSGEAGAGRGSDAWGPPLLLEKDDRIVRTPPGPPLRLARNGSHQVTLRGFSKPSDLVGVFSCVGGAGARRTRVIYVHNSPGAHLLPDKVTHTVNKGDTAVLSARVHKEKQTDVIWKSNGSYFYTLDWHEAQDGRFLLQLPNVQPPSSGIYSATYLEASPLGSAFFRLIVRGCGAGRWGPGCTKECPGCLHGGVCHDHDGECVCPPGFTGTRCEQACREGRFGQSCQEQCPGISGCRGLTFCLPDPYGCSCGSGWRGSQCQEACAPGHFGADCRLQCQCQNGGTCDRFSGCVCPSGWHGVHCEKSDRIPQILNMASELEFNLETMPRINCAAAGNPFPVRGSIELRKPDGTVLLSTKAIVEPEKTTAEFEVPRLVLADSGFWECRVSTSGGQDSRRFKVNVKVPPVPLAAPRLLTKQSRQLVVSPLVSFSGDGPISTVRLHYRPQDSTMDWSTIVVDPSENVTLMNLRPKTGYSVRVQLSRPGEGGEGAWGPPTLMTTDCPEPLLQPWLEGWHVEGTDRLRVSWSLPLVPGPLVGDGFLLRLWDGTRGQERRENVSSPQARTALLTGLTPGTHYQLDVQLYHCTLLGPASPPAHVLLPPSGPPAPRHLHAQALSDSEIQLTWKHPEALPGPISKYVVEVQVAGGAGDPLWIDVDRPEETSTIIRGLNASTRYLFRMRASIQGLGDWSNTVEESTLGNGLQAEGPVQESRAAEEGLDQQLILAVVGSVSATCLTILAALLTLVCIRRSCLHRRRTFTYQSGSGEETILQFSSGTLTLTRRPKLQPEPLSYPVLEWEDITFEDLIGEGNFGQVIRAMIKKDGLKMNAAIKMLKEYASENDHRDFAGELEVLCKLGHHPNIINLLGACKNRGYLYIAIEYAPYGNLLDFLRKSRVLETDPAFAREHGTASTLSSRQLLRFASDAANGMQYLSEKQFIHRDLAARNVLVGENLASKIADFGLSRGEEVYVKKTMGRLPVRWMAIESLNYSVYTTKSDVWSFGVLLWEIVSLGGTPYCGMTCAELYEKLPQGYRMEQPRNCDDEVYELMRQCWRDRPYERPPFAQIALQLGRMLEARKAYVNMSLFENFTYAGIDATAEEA

Chain of UniProt Q02763 (Q02763 23-1124 Q346P/T695I): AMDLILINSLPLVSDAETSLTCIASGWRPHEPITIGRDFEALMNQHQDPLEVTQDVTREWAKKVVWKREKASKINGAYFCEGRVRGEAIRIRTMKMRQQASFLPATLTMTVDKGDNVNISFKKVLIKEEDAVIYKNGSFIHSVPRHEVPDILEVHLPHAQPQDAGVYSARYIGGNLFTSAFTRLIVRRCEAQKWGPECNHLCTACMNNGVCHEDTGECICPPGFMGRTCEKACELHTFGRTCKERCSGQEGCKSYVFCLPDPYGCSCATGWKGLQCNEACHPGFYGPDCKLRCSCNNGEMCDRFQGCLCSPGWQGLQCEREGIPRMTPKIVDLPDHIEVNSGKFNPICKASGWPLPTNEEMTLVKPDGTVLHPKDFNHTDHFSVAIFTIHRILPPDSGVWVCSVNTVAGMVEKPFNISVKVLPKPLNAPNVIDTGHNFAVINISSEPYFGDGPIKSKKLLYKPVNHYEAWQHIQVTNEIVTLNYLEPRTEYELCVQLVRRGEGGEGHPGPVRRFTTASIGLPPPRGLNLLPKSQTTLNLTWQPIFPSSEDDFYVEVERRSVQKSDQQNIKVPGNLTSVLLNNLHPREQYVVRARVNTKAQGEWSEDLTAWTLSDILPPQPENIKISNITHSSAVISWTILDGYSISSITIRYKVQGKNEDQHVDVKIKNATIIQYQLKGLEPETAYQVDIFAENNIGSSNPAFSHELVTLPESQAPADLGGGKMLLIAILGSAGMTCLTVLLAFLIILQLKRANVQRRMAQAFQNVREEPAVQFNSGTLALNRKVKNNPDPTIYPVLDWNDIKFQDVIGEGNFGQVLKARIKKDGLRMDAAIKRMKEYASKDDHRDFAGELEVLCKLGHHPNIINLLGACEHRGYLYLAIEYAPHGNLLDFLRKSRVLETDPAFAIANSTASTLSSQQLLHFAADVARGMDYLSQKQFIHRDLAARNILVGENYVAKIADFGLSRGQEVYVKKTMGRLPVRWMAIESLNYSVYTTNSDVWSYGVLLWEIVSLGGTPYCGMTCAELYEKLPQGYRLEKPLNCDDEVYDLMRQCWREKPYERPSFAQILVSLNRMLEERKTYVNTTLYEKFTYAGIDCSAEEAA

COMP-Ang-1 concentration giving maximal receptor phosphorylation [1]: 600 ng/mL
COMP-Ang-1 concentration giving significant receptor phosphorylation [1]: 100 ng/mL
COMP-Ang-1 concentration giving maximal receptor phosphorylation [2]: 600 ng/mL
COMP-Ang-1 concentration giving significant receptor phosphorylation [2]: 100 ng/mL
Substance: COMP-Ang-1 chimeric protein (from UniProt Q15389 256-498) (ligand)
